In patent publication US8691225B2, “Antibodies against the ectodomain of ErbB3 and uses thereof” (Merrimack Pharmaceuticals, Inc., priority 2007, dated 2014):
Where two headings read alike, the source gives them in different places.

Tests used:
ErbB3 = ErbB3 (Homo sapiens, UniProt P21860); assay: Kinetic Exclusion Assay (KinExA); assay type: binding
[1] = tested on: ErbB3 phosphorylation in ovarian AdrR cells; assay: BTC or HRG induced ErbB3 phosphorylation in AdrR cells in vitro; assay type: cell-based, human
Method: Following pre incubation, the media are removed and the cells are stimulated for 5 minutes at 37° C., 5% CO2 with 50 nM BTC or 333 nM TGF-α. HRG controls (5 minutes, 5 nM), 10% serum and 0% serum controls are also used. Cells are washed with 1× cold PBS and lysed in 30 μl cold lysis buffer (M-PER buffer (Pierce) plus sodium vanadate (NaVO4, Sigma), 2-glycerophosphate, phenylarsine oxide, BpV and protease inhibitors) by incubating on ice for 30 minutes. Lysates are stored overnight at −80° C.

[2] = tested on: heregulin-mediated phosphorylation of ErbB3 and AKT in MALME-3M cells; assay: heregulin-mediated signaling ELISA (pErbB3, pAKT); assay type: cell-based, human; conditions: for IC50: IgG2 isotype, 5 nM HRG
Method: (§1) MALME-3M cells and OVCAR8 cells are separately seeded in 96 well tissue culture plates (35,000 cells per well) and grown in RPMI-1640 media supplemented with antibiotics, 2 mM L-glutamine and 10% FBS for 24 hours at 37° C. and 5% carbon dioxide. Cells are serum-starved in RPMI-1640 media with antibiotics and 2 mM L-glutamine for 24 hours at 37° C. and 5% carbon dioxide. […] Controls are HRG without added antibody and untreated cells (no HRG and no Ab). Cells are washed with cold PBS then harvested with mammalian protein extract (M-PER) lysis buffer (Pierce, 78505) containing 150 mM NaCl, 5 mM sodium pyrophosphate (Sigma, 221368-100G), 10 uM bpV(phen) (Calbiochem, 203695), 50 μM oxophenylarsine (Calbiochem, 521000), 1 mM sodium orthovanadate (Sigma, 56508-10G), and protease inhibitor cocktail (Sigma, P2714). Cell lysates are diluted two-fold with 4% bovine serum albumin in PBST (0.2% tween-20), then analyzed by ELISA for phosphorylation of either ErbB3, or AKT (a downstream effector of ErbB3).
(§2) In order to test for AKT phosphorylation, lysates are run on an ELISA plate with a capture antibody specific to AKT and biotinylated detection antibody specific to phospho-serine 473 of phospho-AKT (pAKT). Signal is generated with streptavidin conjugated to horseradish-peroxidase reacted with SUPERSIGNAL ELISA Pico chemiluminescent substrate (Pierce, 37070). In order to assay for ErbB3 phosphorylation, lysates are run on an ELISA plate with a capture antibody specific for ErbB3 and an anti-phosphotyrosine detection antibody conjugated to horseradish-peroxidase. This is then reacted with the same chemiluminescent substrate. Luminescent signal on the ELISAs is measured using a luminometer.

[3] = tested on: heregulin-mediated phosphorylation of ErbB3 and AKT in OVCAR8 cells; assay: heregulin-mediated signaling ELISA (pErbB3, pAKT); assay type: cell-based, human; conditions: for IC50: IgG2 isotype, 5 nM HRG
Method: as §1, §2

MCF-7 cells = assay: trans-well cell migration assay; assay type: cell-based, human; conditions: 8 uM Ab #6, 10% FBS chemoattractant, 16 hours
Method: The cells are then transferred to an upper chamber that is separated from a lower chamber by a collagen type I-coated membrane through which the cells can migrate. […] The chambers are incubated at 37° C. for 16 hours and then the cells that migrate through the membrane into the lower chamber are removed using a detachment buffer and incubated with a cell-binding fluorescent dye. Fluorescence is quantitated using a fluorescent plate reader.

B1: Ab #6: human anti-ErbB3 antibody from Fab-phage library, CDRs SEQ ID NOs:7-12; used as IgG1 and IgG2 isotypes; in phase I trials as MM-121 (antibody, V domains shown)
VH: EVQLLESGGGLVQPGGSLRLSCAASGFTFSHYVMAWVRQAPGKGLEWVSSISSSGGWTLYADSVKGRFTISRDNSKNTLYLQMNSLRAEDTAVYYCTRGLKMATIFDYWGQGTLVTVSS
VL: QSALTQPASVSGSPGQSITISCTGTSSDVGSYNVVSWYQQHPGKAPKLIIYEVSQRPSGVSNRFSGSKSGNTASLTISGLQTEDEADYYCCSYAGSSIFVIFGGGTKVTVL
dissociation rate (ErbB3): 0.00011 s⁻¹
inhibition of betacellulin-mediated phosphorylation of ErbB3 ([1]; BTC stimulation): significantly inhibited
inhibition of heregulin-mediated phosphorylation of ErbB3 ([1]; HRG stimulation): significantly inhibited
extent of inhibition of phosphorylation of AKT and ErbB3 ([2]; FIGS. 16A-D, MALME-3M cells and OVCAR8 cells): essentially complete inhibiton
inhibition of heregulin-mediated signaling ([2]; MALME-3M cells): potent inhibitor of heregulin-mediated signaling
IC50 ([2]; MALME-3M cells, read-out: IC50, heregulin-mediated phosphorylation of ErbB3): 15 nM
IC50 ([2]; MALME-3M cells, read-out: IC50, phosphorylation of AKT): 11 nM
inhibition of heregulin-mediated signaling [3]: potent inhibitor of heregulin-mediated signaling
IC50 ([3]; read-out: IC50, heregulin-mediated phosphorylation of ErbB3): 24 nM
IC50 ([3]; read-out: IC50, phosphorylation of AKT): 67 nM
inhibition of FBS induced cell migration (MCF-7 cells): inhibits the FBS induced cell migration
